# In US7294496B1, “Cloned human lysophospholipase” (The Regents of the University of California, priority 2000, dated 2007):
# B1: hLysoPLA: recombinant human brain lysophospholipase, single 25 kDa polypeptide of 230 amino acids (SEQ ID NO: 2), catalytic triad Ser-119, Asp-174, His-208 (protein, listed as Homo sapiens)
# chain: MCGNNMSTPLPAIVPAARKATAAVIFLHGLGDTGHGWAEAFAGIRSSHIKYICPHAPVRPVTLNMNVAMPSWFDIIGLSPDSQEDESGIKQAAENIKALIDQEVKNGIPSNRIILGGFSQGGALSLYTALTTQQKLAGVTALSCWLPLRASLPQGPIGGANRDISILQCHGDCDPLVPLMFGSLTVEKLKTLVNPANVTFKTYEGMMHSSCQQEMMDVKQFIDKLLPPID
# Assays:
# Type in all cases: biochemical
# [1] = LysoPLA activity assay (release of fatty acid from 14C-LysoPC)
# Description: (§1) The protein concentration was determined by the Bio-Rad protein assay, using bovine serum albumin (BSA) as standard. Protein purity was examined using 12% SDS-PAGE and Coomassie blue staining. LysoPLA activity was measured at 40° C. in the assay buier containing LysoPC, 100 mM Tris-HCl (pH 8.0) and 10 mM LMe. Cold 1-palmitoyl-sn-glycero-3-phosphorylcholine (125 μM, unless indicated otherwise) was mixed with 1-[14 C]palmitoyl-sn-glycero-3-phosphorylcholine (100,000 cpm) in a total volume of 0.5 ml. The assay was initiated by adding an aliquot of enzyme solution to the substrate mixture and incubating for the desired time. The released fatty acid was extracted by the modified Dole method and then quantified by scintillation counting. The PLA2 activity assay was carried out, using various ^14C-labeled phospholipid substrates under various conditions as given in the text. The rat brain iPLA2 was purified as described elsewhere (H. C. Yang et al., manuscript in preparation incorporated herein). Human recombinant cPLA2 was a gift from Drs. J. D. Sharp and R. M. Kramer at Lilly Laboratories. 1-[^14C]Palmitoyl-sn-glycero-3-phosphorylcholine and 1-palmitoyl-2-[1-^14C]palmitoyl-sn-glycerol-3-phosphorylcholine were purchased from Amersham. 1-Palmitoyl-2-[1-^14C]arachidonoyl-sn-glycerol-3-phosphorylcholine was purchased from DuPont-NEN. All unlabeled phospholipids were purchased from Avanti Polar Lipids. Triton X-100 (TX-100) and PIP2 were obtained from CalBiochem.
# To investigate the catalytic properties of the hLy-soPLA, we first determined the specific activity of hLysoPLA as a function of substrate (1-palmitoyl LysoPC) concentration. […] There seems to be some cooperativity, since the data fit to the Hill equation (solid line in FIG. 3) with n=1.53 ? 0.08, kcat=1.34 ? 0.04 μmol/min/mg, and substrate at half-maximal saturation is 12.7±0.9 μM.
# TX-100 is often used in the purification and stabilization of membrane-associated proteins. In addition, it is used to change the surface concentration of the substrate in the mixed-micelle assay for mechanistic studies. To determine the dependence of the enzyme activity on the substrate surface concentration, we measured the hLysoPLA activity under two conditions:
# (1) the bulk LysoPC concentration (1.125 mM) was kept constant and the TX-100 concentration was varied (FIG. 4A);
# (2) the bulk TX-100 concentration (1 mM) was kept constant and the LysoPC concentration was varied (FIG. 4B).
# In addition, we have carried out detailed kinetic measurements and analysis to test the surface dilution kinetic model and results are shown in FIG. 4° C. The experimental data were fitted globally to Eq. 1 derived from the model in which hLysoPLA follows the two-step binding kinetics (Scheme 1). That is, hLysoPLA (E) binds first to the mixed-micellar surface (S) and then to the LysoPC substrate (A) presented on the surface.
# [formula] [formula] Here, [LysoPC+TX-100] is the total molar concentration in the bulk solution, and {LysoPC®} is the molar fraction of the substrate on the mixed-micellar surface. Calculation of the amount of TX-100 in the micelle takes into account the amount of monomeric detergent in the solution, assuming the critical micelle concentration of TX-100 is 0.25 mM. The fitting parameter Ks represents the dissociation constant (k31/k1) for the mixed-micellar surface, Km represents the apparent Michaelis constant (=(k3+ k32)/k2) on the surface, and Vmax is the catalytic turnover rate.
# [2] = PLA2 activity assay toward plasmenylcholine
# Description: as §1
# The sn-2 labeled PlsCho (plasmenylcholine or 1-O— (Z)-1P-alkenyl-2-arachidonoyl-sn-glycero-3-phosphocholine) was synthesized as follows. A total of 4 μmol [1-14C]arachidonic acid (from NEN, with specific activity […]) was diluted 10 times with cold arachidonic acid in 250 μl distilled methylene chloride (Fisher Scientific). To this 0.04 mmol p(N,N-dimethyl)amino pyridine (Aldrich) and 0.08 mmol 1,3-dicyclohexyl carbodiimide (Aldrich) were added to yield the arachidonoyl anhydride upon 1 h of stirring. Lysoplasmenylcholine (0.06 mmol, from Serdary) dissolved in 200 μl methylene chloride and 50 μl pyridine (Fisher Scienticc) was added to the arachidonoyl anhydride solution with 0.03 μmol dimethylaminopyridine and left stirring for 8 h. The reaction progress was monitored by thin layer chromatography (Merck) using a mobile phase of chloroform:methanol:triethyl amine:water (65:30:1.5:3.5), and retardation factors were 0.6 and 0.2 for PlsCho and LysoPlsCho, respectively. The separation of the product was carried out by preparative layer chromatography (Merck) in the above mobile system. The reaction yielded a total of 3.6 mg (7.7 μmol) of radiolabeled PlsCho (specific activity 0.18 μCi/μmol) by quantitative phosphate analysis.
# (§2) When we first purified the mouse LysoPLA from P388D1 cells, no other enzymatic activities (PLA1, PLA2, acyltransferase, transacylase and esterase) were found. Therefore, it appears to be a LysoPL-specific LysoPLA. Similar results were obtained for the rat LysoPLA and the relative rates towards different LysoPL substrates were reported [Sugimoto et al., (1996) J. Biol. Chem. 271, 7705-11]. However, a recently sequenced rabbit enzyme that shares high sequence homology (approx. 97%) to the rat/mouse LysoPLA was reported to have both PLA2 and LysoPLA activities [Portilla, et al., […] J. Am. Soc.Nephrol. 9, 1178-86]. The specific activities, however, were only 10 nmol/min/mg for PLA2 activity and 20 nmol/min/mg for LysoPLA activity. The PLA2 activity was also reported to be selective for PlsCho substrate with arachidonic acid at the sn2 position. To determine whether hLysoPLA also expresses PLA2 activity, we have explored its ability to hydrolyze arachidonic acid labeled PlsCho as well as other phospholipid substrates under a variety of conditions.
# [3] = PLA2 activity assay toward DPPC; conditions: for Activity: 100 mM Hepes
# Description: as §1, §2
# [4] = PLA2 activity assay toward PAPC; conditions: for Activity: 100 mM Hepes, pH 7.5, 80 μM Ca2+, 2 mM DTT, 0.1 mg/ml BSA
# Description: as §1, §2
# [5] = Hill equation fit, pure LysoPC (FIG. 3)
# [6] = global fit to surface dilution model, LysoPC/TX-100 mixed micelles
molecule,measurement,setting,value
B1,Hill coefficient n,"[1]; Hill equation fit, activity vs 1-palmitoyl LysoPC concentration, 40° C. (FIG. 3)",1.53
same,kcat,[1]; [5],1.34 µmol/min/mg
same,substrate at half-maximal saturation,[1]; [5],12.7 ± 0.9 µM
same,Activity,"[1]; LysoPC micelles (125 μM), 100 mM Tris, pH 8.0, 10 mM βMe",1.13 ± 0.03 µmol/min/mg
same,kcat,"[1]; Michaelis-Menten fit, LysoPC 1.125 mM constant, TX-100 varied (FIG. 4A)",1.6 µmol/min/mg
same,kcat,"[1]; Michaelis-Menten fit, TX-100 1 mM constant, LysoPC varied (FIG. 4B)",1.7 µmol/min/mg
same,Km (apparent Michaelis constant on the surface),[1]; [6],12.2±0.9 mol %
same,Ks (dissociation constant for the mixed-micellar surface),[1]; [6],66 ± 7 µM
same,Vmax,"[1]; global fit to surface dilution model, LysoPC/TX-100 mixed micelles (FIG. 4C)",1.37 ± 0.05 µmol/min/mg
same,specific activity toward palmitoyl LysoPC,"[1]; purified recombinant enzyme, His-Tag removed",about 1.3 μmol/min/mg
same,Activity,"[2]; PisCho sonicated vesicles (100 μM), 100 mM Tris, pH 8.0, 4 mM EGTA, 10 mM βMe",0.0009 ± 0.0003 µmol/min/mg
same,Activity,"[2]; PisCho sonicated vesicles (100 μM), 100 mM Tris, pH 8.0, 150 mM NaCl, 3 mM MgCl2, 10 mM βMe",0.0006 ± 0.0002 µmol/min/mg
same,Activity,"[2]; PisCho/TX-100 mixed micelles (100 μM:600 μM), 100 mM Hepes, pH 7.5, 10 mM βMe",0.0024 ± 0.0004 µmol/min/mg
same,activity toward PlsCho substrate labeled with [14C]arachidonic acid (in words),[2]; mixed micelles or vesicles,did not show any significant activity
same,PLA2 activity toward phosphatidylcholine substrates (in words),[3]; DPPC substrates,no PLA2 activity was found
same,Activity,"[3]; DPPC/POPS sonicated vesicles (67 μM:33 μM), pH 7.5, 5 mM EDTA or Ca2+, 1 mg/ml BSA",<0.0001 µmol/min/mg
same,Activity,"[3]; DPPC/TX-100 mixed micelles (100 μM:400 μM), pH 7.5, 2 mM DTT, 5 mM EDTA",<0.0001 µmol/min/mg
same,PLA2 activity toward phosphatidylcholine substrates (in words),[4]; PAPC substrates,no PLA2 activity was found
same,Activity,[4]; PAPC/PIP2/TX-100 mixed micelles (97 μM:3 μM:400 μM),<0.0001 µmol/min/mg
same,Activity,[4]; PAPC/TX-100 mixed micelles (100 μM:400 μM),<0.0001 µmol/min/mg
